# From patent US20260167699A1 (Chugai, published 2026)
# B1: GpH7-A5/GpH7-B3 variant H268_02A/GpL16-k0 (antibody, human IgG1, kappa)
# heavy 1: not shown
# heavy 2: not shown
# light: DIVMTQSPLSLPVTPGEPASISCQASESLVHSNRNTYLHWYLQKPGQSPQLLIYKVSNRFSGVPDRFSGSGSGTDFTLKISRVEAEDVGVYYCSQNTHVPPTFGQGTKVEIERTVAAPSVFIFPPSDEQLKSGTASVVCLLNNFYPREAKVQWKVDNALQSGNSQESVTEQDSKDSTYSLSSTLTLSKADYEKHKVYACEVTHQGLSSPVTKSFNRGEC
# notes: He Ab; copies: 1 + 1 + 2
# B2: GpH7-A5/GpH7-B3 variant H268_03V/GpL16-k0 (antibody, human IgG1, kappa)
# heavy 1: not shown
# heavy 2: not shown
# light: B1 light
# notes: He Ab; copies: 1 + 1 + 2
# B3: GpH7-A5/GpH7-B3 variant H268_04F/GpL16-k0 (antibody, human IgG1, kappa)
# heavy 1: not shown
# heavy 2: not shown
# light: B1 light
# notes: He Ab; copies: 1 + 1 + 2
# B4: GpH7-A5/GpH7-B3 variant H268_06M/GpL16-k0 (antibody, human IgG1, kappa)
# heavy 1: not shown
# heavy 2: not shown
# light: B1 light
# notes: He Ab; copies: 1 + 1 + 2
# B5: GpH7-A5/GpH7-B3 variant H268_07I/GpL16-k0 (antibody, human IgG1, kappa)
# heavy 1: not shown
# heavy 2: not shown
# light: B1 light
# notes: He Ab; copies: 1 + 1 + 2
# B6: GpH7-A5/GpH7-B3 variant H268_08L/GpL16-k0 (antibody, human IgG1, kappa)
# heavy 1: not shown
# heavy 2: not shown
# light: B1 light
# notes: He Ab; copies: 1 + 1 + 2
# B7: GpH7-A5/GpH7-B3 variant H268_09D/GpL16-k0 (antibody, human IgG1, kappa)
# heavy 1: not shown
# heavy 2: not shown
# light: B1 light
# notes: He Ab; copies: 1 + 1 + 2
# B8: GpH7-A5/GpH7-B3 variant H268_10E/GpL16-k0 (antibody, human IgG1, kappa)
# heavy 1: not shown
# heavy 2: not shown
# light: B1 light
# notes: He Ab; copies: 1 + 1 + 2
# B9: GpH7-A5/GpH7-B3 variant H268_11K/GpL16-k0 (antibody, human IgG1, kappa)
# heavy 1: not shown
# heavy 2: not shown
# light: B1 light
# notes: He Ab; copies: 1 + 1 + 2
# B10: GpH7-A5/GpH7-B3 variant H268_12R/GpL16-k0 (antibody, human IgG1, kappa)
# heavy 1: not shown
# heavy 2: not shown
# light: B1 light
# notes: He Ab; copies: 1 + 1 + 2
# B11: GpH7-A5/GpH7-B3 variant H268_13S/GpL16-k0 (antibody, human IgG1, kappa)
# heavy 1: not shown
# heavy 2: not shown
# light: B1 light
# notes: He Ab; copies: 1 + 1 + 2
# B12: GpH7-A5/GpH7-B3 variant H268_14T/GpL16-k0 (antibody, human IgG1, kappa)
# heavy 1: not shown
# heavy 2: not shown
# light: B1 light
# notes: He Ab; copies: 1 + 1 + 2
# B13: GpH7-A5/GpH7-B3 variant H268_15Y/GpL16-k0 (antibody, human IgG1, kappa)
# heavy 1: not shown
# heavy 2: not shown
# light: B1 light
# notes: He Ab; copies: 1 + 1 + 2
# B14: GpH7-A5/GpH7-B3 variant H268_18N/GpL16-k0 (antibody, human IgG1, kappa)
# heavy 1: not shown
# heavy 2: not shown
# light: B1 light
# notes: He Ab; copies: 1 + 1 + 2
# B15: GpH7-A5/GpH7-B3 variant H268_19Q/GpL16-k0 (antibody, human IgG1, kappa)
# heavy 1: not shown
# heavy 2: not shown
# light: B1 light
# notes: He Ab; copies: 1 + 1 + 2
# B16: GpH7-A5/GpH7-B3 variant H268_20W/GpL16-k0 (antibody, human IgG1, kappa)
# heavy 1: not shown
# heavy 2: not shown
# light: B1 light
# notes: He Ab; copies: 1 + 1 + 2
# B17: GpH7-A5/GpH7-B3 variant I332_02A/GpL16-k0 (antibody, human IgG1, kappa)
# heavy 1: not shown
# heavy 2: not shown
# light: B1 light
# notes: He Ab; copies: 1 + 1 + 2
# B18: GpH7-A5/GpH7-B3 variant I332_03V/GpL16-k0 (antibody, human IgG1, kappa)
# heavy 1: not shown
# heavy 2: not shown
# light: B1 light
# notes: He Ab; copies: 1 + 1 + 2
# B19: GpH7-A5/GpH7-B3 variant I332_04F/GpL16-k0 (antibody, human IgG1, kappa)
# heavy 1: not shown
# heavy 2: not shown
# light: B1 light
# notes: He Ab; copies: 1 + 1 + 2
# B20: GpH7-A5/GpH7-B3 variant I332_06M/GpL16-k0 (antibody, human IgG1, kappa)
# heavy 1: not shown
# heavy 2: not shown
# light: B1 light
# notes: He Ab; copies: 1 + 1 + 2
# B21: GpH7-A5/GpH7-B3 variant I332_10E/GpL16-k0 (antibody, human IgG1, kappa)
# heavy 1: not shown
# heavy 2: not shown
# light: B1 light
# notes: He Ab; copies: 1 + 1 + 2
# B22: GpH7-A5/GpH7-B3 variant I332_13S/GpL16-k0 (antibody, human IgG1, kappa)
# heavy 1: not shown
# heavy 2: not shown
# light: B1 light
# notes: He Ab; copies: 1 + 1 + 2
# B23: GpH7-A5/GpH7-B3 variant I332_14T/GpL16-k0 (antibody, human IgG1, kappa)
# heavy 1: not shown
# heavy 2: not shown
# light: B1 light
# notes: He Ab; copies: 1 + 1 + 2
# B24: GpH7-A5/GpH7-B3 variant I332_16H/GpL16-k0 (antibody, human IgG1, kappa)
# heavy 1: not shown
# heavy 2: not shown
# light: B1 light
# notes: He Ab; copies: 1 + 1 + 2
# B25: GpH7-A5/GpH7-B3 variant I332_19Q/GpL16-k0 (antibody, human IgG1, kappa)
# heavy 1: not shown
# heavy 2: not shown
# light: B1 light
# notes: He Ab; copies: 1 + 1 + 2
# B26: GpH7-A5/GpH7-B3 variant K326_01G/GpL16-k0 (antibody, human IgG1, kappa)
# heavy 1: not shown
# heavy 2: not shown
# light: B1 light
# notes: He Ab; copies: 1 + 1 + 2
# B27: GpH7-A5/GpH7-B3 variant K326_02A/GpL16-k0 (antibody, human IgG1, kappa)
# heavy 1: not shown
# heavy 2: not shown
# light: B1 light
# notes: He Ab; copies: 1 + 1 + 2
# B28: GpH7-A5/GpH7-B3 variant K326_03V/GpL16-k0 (antibody, human IgG1, kappa)
# heavy 1: not shown
# heavy 2: not shown
# light: B1 light
# notes: He Ab; copies: 1 + 1 + 2
# B29: GpH7-A5/GpH7-B3 variant K326_04F/GpL16-k0 (antibody, human IgG1, kappa)
# heavy 1: not shown
# heavy 2: not shown
# light: B1 light
# notes: He Ab; copies: 1 + 1 + 2
# B30: GpH7-A5/GpH7-B3 variant K326_05P/GpL16-k0 (antibody, human IgG1, kappa)
# heavy 1: not shown
# heavy 2: not shown
# light: B1 light
# notes: He Ab; copies: 1 + 1 + 2
# Molecular target: T1, FcγRIIIa extracellular domain, C-terminal His tag (human, UniProt P08637 17-208)
# T1 construct: extracellular domain; also called 3a
# T1 sequence (P08637 other isoform, or with tags, fused parts or gaps): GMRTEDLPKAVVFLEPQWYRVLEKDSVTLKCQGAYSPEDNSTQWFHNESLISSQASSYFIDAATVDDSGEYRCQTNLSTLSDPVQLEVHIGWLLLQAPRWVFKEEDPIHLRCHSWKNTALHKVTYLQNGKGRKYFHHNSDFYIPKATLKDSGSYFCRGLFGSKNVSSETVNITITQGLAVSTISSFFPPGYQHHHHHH
# Test: SPR, binding activity relative to GpH7-A5/GpH7-B3/GpL16-k0 (=100)
row,Binder,He/Con 3a [%]
1,B1,121
2,B2,91.4
3,B3,96
4,B4,79.5
5,B5,84.1
6,B6,75.9
7,B7,195
8,B8,184
9,B9,81.6
10,B10,76
11,B11,121
12,B12,90.3
13,B13,96.5
14,B14,103
15,B15,113
16,B16,82
17,B17,103
18,B18,85.2
19,B19,89.3
20,B20,92.5
21,B21,213
22,B22,95.6
23,B23,110
24,B24,89
25,B25,101
26,B26,114
27,B27,130
28,B28,135
29,B29,114
30,B30,117
